Here are results for one substance from publication PMC3391290.

Test [1] has as its target TSHR-LHR-6 chimeric receptor. Description: radioligand binding; membrane preparations of TSHR wild type, mutants and constructs, 125I-hTSH with increasing unlabelled hTSH; with MAb 311.87 (134 nM) (Table 5).
The target of test [2] is TSHR-LHR-6 chimeric receptor. Description: radioligand binding; membrane preparations of TSHR wild type, mutants and constructs, 125I-hTSH with increasing unlabelled hTSH; with NMIgG (control) (Table 5).

human thyroid stimulating hormone (hTSH), sequence (P01215 25-116): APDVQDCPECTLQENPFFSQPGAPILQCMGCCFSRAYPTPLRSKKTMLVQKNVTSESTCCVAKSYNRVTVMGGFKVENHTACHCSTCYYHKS
human thyroid stimulating hormone (hTSH), sequence (P01222 21-132): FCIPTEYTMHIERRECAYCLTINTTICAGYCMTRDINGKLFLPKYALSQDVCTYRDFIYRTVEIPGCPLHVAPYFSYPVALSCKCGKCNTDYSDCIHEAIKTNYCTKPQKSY

By Kd is commonly meant the equilibrium constant for the complex coming apart. Low readings indicate tighter binding, high ones weaker binding. On to “human thyroid stimulating hormone (hTSH) (from UniProt P01215 25-116; P01222 21-132) (ligand)”, for which, in test [1], the Kd with MAb 311.87 worked out at 390 pM. The substance further had a Kd in test [2] of 270 pM.
